Measured values published in patent US20110144038A1 (FRESENIUS MEDICAL CARE DEUTSCHLAND G M B H, published 2011).
Positions of bridges follow the written chain, without caps; N, C: chain ends. No end group written: not given here.

T1: human CD154 expressed on the cell surface of J558L cells (murine myeloma cell line transfected with human … (human, UniProt P29965 1-261))
T1 construct: whole, on cells; also called CD40L; CD40 ligand
T1 sequence (looked up): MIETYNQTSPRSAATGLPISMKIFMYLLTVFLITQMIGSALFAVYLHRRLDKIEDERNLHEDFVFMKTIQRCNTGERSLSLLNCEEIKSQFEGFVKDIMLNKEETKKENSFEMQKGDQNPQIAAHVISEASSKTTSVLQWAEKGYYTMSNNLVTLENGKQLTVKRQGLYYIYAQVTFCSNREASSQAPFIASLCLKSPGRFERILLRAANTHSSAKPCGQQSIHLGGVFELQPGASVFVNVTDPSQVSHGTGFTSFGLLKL

B1: peptide 4.2 = 4.3 tagged with a 6 histidines tail (-His6) (peptide)
peptide: CPSGHTKACHHHHHH
modifications: disulfide 1-9
notes: Synthetic peptide; also called -his6 peptide
B2: peptide 4.4 tagged with a 6 histidines tail (-His6) (peptide)
peptide: CGTHSSRICHHHHHH
modifications: disulfide 1-9
notes: as for B1
B3: peptide 4.6 tagged with a 6 histidines tail (-His6) (peptide)
peptide: CLGTQNKECHHHHHH
modifications: disulfide 1-9
notes: as for B1
B4: peptide 4.7 = 4.12 tagged with a 6 histidines tail (-His6) (peptide)
peptide: CTPGKPHSCHHHHHH
modifications: disulfide 1-9
notes: as for B1
B5: peptide 4.8 tagged with a 6 histidines tail (-His6) (peptide)
peptide: CKAASANICHHHHHH
modifications: disulfide 1-9
notes: as for B1
B6: peptide 4.10 tagged with a 6 histidines tail (-His6) (peptide)
peptide: CLPTRHMACHHHHHH
modifications: disulfide 1-9
notes: as for B1
B7: peptide 4.11 tagged with a 6 histidines tail (-His6) (peptide)
peptide: CLSAVHNMCHHHHHH
modifications: disulfide 1-9
notes: as for B1
B8: peptide 4.10 with the residue at position 4 replaced with alanine (peptide)
peptide: CLPARHMAC
notes: also called mutated peptide (position 4)
B9: control peptide 4.10-ala (peptide)
peptide: CLPTAHMAC
notes: also called peptide 4.10 with alanine at position 5
B10: peptide 4.10 with the residue at position 6 replaced with alanine (peptide)
peptide: CLPTRAMAC
notes: also called mutated peptide (position 6)

Assays:
[1] = molecular target: T1, human CD154 expressed on the cell …; assay: flow cytometry, -His6 peptide on J558L cells, PE anti-His6 antibody
Protocol: FIG. 2 represents the binding of the seven peptides obtained from the human CD154-binding clones and tagged with a 6 histidines tail (-His₆) to the J558L CD154⁺ cells. […] The cells were incubated with each of the -His₆-tagged peptides and then with a phycoerythrin-conjugated secondary antibody specific for the-His₆ tail. […] For each experimental condition, 10,000 events were analyzed and the values are the mean and standard deviation of 3 different experiments. All of the peptides are capable of specifically binding to the CD154 on the J558L CD154⁺ cells and are not capable of binding to the control J558 cells.
The peptides were synthesized and conjugated with biotin (-bio) or with a 6-histidine tail (-his₆) so as to enable in vitro and in vivo localization. […] Furthermore, a competition assay between the peptides and an anti-human CD154 fluorescein-conjugated antibody (Serotec) specifically recognizing the active site of CD154 was carried out. The J558L cells were incubated with the his₆-peptides for 30 minutes at room temperature and then with anti-human CD154 fluorescein-conjugated antibody for another 30 minutes at room temperature.

[2] = molecular target: T1, human CD154 expressed on the cell …; assay: binding to J558L cells
Protocol: The murine myeloma cells transfected with human CD154, J558L, were incubated with each of the seven anti-CD154 peptides tagged with a 6 histidines tail (-His₆), and then with the anti-CD154 fluorescein-conjugated antibody. The ability of the peptides to compete with the anti-CD154 antibody for the binding to the CD154 molecule expressed on the surface of the J558L cells was evaluated by flow cytometry, as the reduction in the fluorescence intensity compared to the positive control represented by cells incubated with the anti-human CD154 fluorescein-conjugated antibody alone. […] The amino acid sequence of the control peptide differs from that of peptide 4.10 in that an arginine residue is replaced with an alanine residue at amino acid position 5.
The peptides were synthesized and conjugated with biotin (-bio) or with a 6-histidine tail (-his₆) so as to enable in vitro and in vivo localization. […] Furthermore, a competition assay between the peptides and an anti-human CD154 fluorescein-conjugated antibody (Serotec) specifically recognizing the active site of CD154 was carried out.

[3] = molecular target: T1, human CD154 expressed on the cell …; assay: binding to CD154+ J558L cells

| Binder | binding result [1] | also measured |
| --- | --- | --- |
| B1 | binds |  |
| B2 | binds |  |
| B3 | binds |  |
| B4 | binds |  |
| B5 | binds |  |
| B6 | binds |  |
| B7 | binds |  |
| B8 |  | binding result [2]: no binding |
| CLPSRHMAC [modified peptide 4.102] |  | binding result [3]: no binding |
| B9 |  | binding result [2]: no binding |
| B10 |  | binding result [2]: no binding |
| CLPTRWMAC [modified peptide 4.104] |  | binding result [3]: no binding |
| CIPTRHMAC [modified peptide 4.101] |  | binding result [3]: no binding |
| CIPTRHMVC [modified peptide 4.103] |  | binding result [3]: no binding |
